Test results: EP2025757A2
Ends that are not written are not given here.

Columns and labels:
[1] = molecular target: serpin enzyme complex receptor (SEC-R) on human hepatoma cell lines (human); assay: fluorescence microscopy of HuH7 cells with 100 nM fluorescein labeled peptide at 4 C; cells per 100 counted
[2] = molecular target: serpin enzyme complex receptor (SEC-R) on human hepatoma cell lines (human); assay: fluorescence microscopy of HepG2(low) cells with 100 nM fluorescein labeled peptide at 4 C; cells per 100 counted
[3] = molecular target: serpin enzyme complex receptor (SEC-R) on human hepatoma cell lines (human); assay: fluorescence microscopy of HepG2(high) cells with 100 nM fluorescein labeled peptide at 4 C; cells per 100 counted
[4] = molecular target: serpin enzyme complex receptor (SEC-R) on human hepatoma cell lines (human); assay: 125I-C105Y specific binding on cells
[5] = molecular target: serpin enzyme complex receptor (SEC-R) on human hepatoma cell lines (human); assay: 125I-C105Y saturation binding on HuH7 cells, Scatchard analysis
[6] = molecular target: serpin enzyme complex receptor (SEC-R) on human hepatoma cell lines (human); assay: 125I-C105Y saturation binding on HepG2 (low) cells, Scatchard analysis
[7] = molecular target: serpin enzyme complex receptor (SEC-R) on human hepatoma cell lines (human); assay: 125I-C105Y saturation binding on HepG2 (high) cells, Scatchard analysis

Row | Binder | Average % Fluorescent Cells [1] [%] | Average % Fluorescent Cells [2] [%] | Average % Fluorescent Cells [3] [%] | fold less specific binding, HepG2 (low) against HepG2 (high) [4] [fold] | fold less specific binding, HepG2 (low) against HuH7 [4] [fold] | fold more C105Y bound, HuH7 against HepG2 (high) [4] [fold] | Kd [5] [nM] | Kd [6] [nM] | Kd [7] [nM]
1 | CFLEAIPMSIPPEVKFNKPFVFLIIHRD (also: labelled with fluorescein isothiocyanate, site not given here) [fluorescein labeled C1315 peptide] | 14.3 | 1.8 | 20.4 |  |  |  |  |  | 
2 | CSIPPEVKFNKPFVYLI (also: radio-iodinated with 125I, site not given here) [Peptide C105Y] |  |  |  | 7.5 | 10 | 1.5 | 70 | 22.5 | 50
